Where two headings read alike, the source gives them in different places.
What was measured:
[1] = biological target: T1, human SIRP-α v1 D1 domain (human, UniProt P78324 31-149); assay: SPR, antibody immobilised on GLC chip
T1 construct: also called human v1; human α v1
Method: (§1) All experiments were performed at 25° C. using a SPR-based ProteOn XPR36 biosensor (BioRad, Inc, Hercules, Calif.) equipped with GLC or NLC sensor chips. […] Purification was carried out by standard Protein A affinity column chromatography and eluted antibodies were stored in PBS buffer.
(§2) For the method using GLC chip, the analytes were injected and flowed over anti-SIRPα antibodies immobilized (˜1000 RUs) on GLC chips using Proteon™ Amine Coupling Kit. For the immobilization step, GLC chip was activated with EDAC/Sulpho-NHS 1:1 (Biorad) diluted 1/100 for 300 s at 25 μL/min. Anti-SIRPα antibodies were diluted to 80 nM concentration in 10 mM sodium acetate buffer pH 4.5 and immobilized to the chip at 30 μL/min for 50 s. Chip was inactivated with ethanolamine for 300 s at 25 μL/min. The analytes (e.g., SIRP-α from different species, SIRP-β, SIRP-γ) were injected in a “one-shot” kinetic mode at nominal concentrations of 100, 33, 11, 3.7, 1.2 and 0 nM. Association times were monitored for 90 s at 100 μL/min, and dissociation times were monitored for 1200 s. The surfaces were regenerated with a 2:1 v/v blend of Pierce IgG elution buffer/4M NaCl.

[2] = biological target: T2, cynomolgus SIRP-α D1 domain (SEQ ID NO:11) (cynomolgus, UniProt Q5TFQ8 30-148 (human entry), limits assumed); assay: SPR, antibody immobilised on GLC chip
T2 construct: also called cyno1
T2 chain: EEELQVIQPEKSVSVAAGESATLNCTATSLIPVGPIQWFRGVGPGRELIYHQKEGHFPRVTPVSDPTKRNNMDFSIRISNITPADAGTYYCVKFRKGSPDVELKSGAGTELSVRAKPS
Method: as §1, §2

[3] = biological target: T3, human SIRP-α v2 D1 domain (human); assay: SPR, antibody immobilised on GLC chip
T3 construct: also called human v2; human α v2
Method: as §1, §2

[4] = biological target: T4, human SIRPβ isoform 1 (human, UniProt O00241 30-148); assay: SPR, ProteOn, antibody on chip
T4 construct: also called sirpb1; Sirpb1
Method: as §1
(§3) The running buffer was PBS pH 7.4 with 0.01% Tween-20 (PBST+). All analytes were used at their nominal concentrations as determined by A280 Absorbance and using their molar calculated extinction coefficient.
as §2

[5] = biological target: T1, human SIRP-α v1 D1 domain; assay: SPR, ProteOn, antibody on chip
Method: as §1, §3, §2

[6] = biological target: T2, cynomolgus SIRP-α D1 domain (SEQ ID …); assay: SPR, ProteOn, antibody on chip
Method: as §1, §3, §2

[7] = biological target: T3, human SIRP-α v2 D1 domain; assay: SPR, ProteOn, antibody on chip
Method: as §1, §3, §2

[8] = biological target: T5, human SIRPβ isoform 2 (human, UniProt Q5TFQ8 30-148); assay: SPR, ProteOn, antibody on chip
T5 construct: also called Sirpb2; beta isoform 2
Method: as §1, §3, §2

[9] = biological target: T6, human SIRPγ isoform 1 (human, UniProt Q9P1W8 29-147); assay: SPR, ProteOn, antibody on chip
T6 construct: also called sirpg; sirp-g
Method: as §1, §3, §2

[10] = biological target: T7, human SIRPβ isoform 1 (human, UniProt O00241 30-148); assay: SPR
T7 construct: also called Beta; Human SIRPb
How it was run: (§4)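 KD values were derived as kd/ka from apparent rate constants obtained by globally fitting double-referenced data to a simple Langmuir model. The data came from a ProteOn XPR36 biosensor run at 25° C in PBS pH 7.4 with 0.01% Tween-20. There, purified antibodies sat on a GLC chip by amine coupling or on an NLC chip by biotinylated Protein A capture, and SIRP analytes were injected in one-shot kinetic mode at nominal concentrations set from A280 absorbance.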

[11] = biological target: T8, cynomolgus SIRP-α (cynomolgus monkey, UniProt Q5TFQ8 30-148 (human entry), limits assumed); assay: SPR
T8 construct: also called cyno1
T8 chain: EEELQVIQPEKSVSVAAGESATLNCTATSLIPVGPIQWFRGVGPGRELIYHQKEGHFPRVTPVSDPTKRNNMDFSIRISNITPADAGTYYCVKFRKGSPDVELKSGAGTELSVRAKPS
How it was run: as §4

[12] = biological target: T9, human SIRP-α v1 (human, UniProt P78324 31-149); assay: SPR
T9 construct: also called Human v1; Human V1
How it was run: as §4

[13] = biological target: T10, NOD mouse SIRP-α (mouse (NOD strain)); assay: SPR
T10 chain: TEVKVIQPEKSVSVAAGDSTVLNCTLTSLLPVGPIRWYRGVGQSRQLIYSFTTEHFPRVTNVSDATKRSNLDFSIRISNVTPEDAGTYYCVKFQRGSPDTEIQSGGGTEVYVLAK
How it was run: as §4

[14] = biological target: T11, human SIRPγ isoform 1 (human, UniProt Q9P1W8 29-147); assay: SPR
T11 construct: also called Gamma; Human SIRPg
How it was run: as §4

[15] = biological target: T12, human SIRP-α v2 (human); assay: SPR
T12 construct: also called Human v2; Human V2
How it was run: as §4

[16] = biological target: T13, BALBc mouse SIRP-α (mouse (BALB/c strain)); assay: SPR
T13 chain: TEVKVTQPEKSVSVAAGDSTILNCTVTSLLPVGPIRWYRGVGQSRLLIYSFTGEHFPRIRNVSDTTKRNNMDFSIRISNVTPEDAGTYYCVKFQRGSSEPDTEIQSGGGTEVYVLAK
How it was run: as §4

[17] = biological target: T14, BL6 mouse SIRP-α (mouse (C57BL/6 strain), UniProt P97797 32-148); assay: SPR
T14 construct: also called C57BL/6
T14 sequence: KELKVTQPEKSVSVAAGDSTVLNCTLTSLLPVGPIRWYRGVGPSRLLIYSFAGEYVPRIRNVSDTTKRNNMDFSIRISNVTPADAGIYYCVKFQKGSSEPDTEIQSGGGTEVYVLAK
How it was run: as §4

[18] = biological target: T9, human SIRP-α v1; assay: SPR; remark: listed apart in the source
How it was run: as §4

[19] = biological target: T12, human SIRP-α v2; assay: SPR KD
How it was run: as §4

[20] = biological target: T7, human SIRPβ isoform 1; assay: SPR Koff +/-
How it was run: as §4

[21] = biological target: T15, NOD mouse SIRP-α D1 domain (mouse (NOD strain)); assay: SPR, Langmuir fit
T15 chain: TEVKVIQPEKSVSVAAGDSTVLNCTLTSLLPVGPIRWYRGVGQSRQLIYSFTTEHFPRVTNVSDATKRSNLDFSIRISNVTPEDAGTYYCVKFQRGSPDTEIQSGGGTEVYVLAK

[22] = biological target: T16, BALB/c mouse SIRP-α D1 domain (mouse (BALB/c strain)); assay: SPR, Langmuir fit
T16 chain: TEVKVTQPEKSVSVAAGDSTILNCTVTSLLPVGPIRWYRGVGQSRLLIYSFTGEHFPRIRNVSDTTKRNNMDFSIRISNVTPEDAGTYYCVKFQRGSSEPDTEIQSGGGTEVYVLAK

[23] = biological target: T2, cynomolgus SIRP-α D1 domain (SEQ ID …); assay: SPR, Langmuir fit
[24] = biological target: T17, cynomolgus SIRP-α D1 domain (SEQ ID NO:12) (cynomolgus, UniProt Q5TFQ8 30-148 (human entry), limits assumed); assay: SPR, Langmuir fit
T17 construct: also called cyno2; Cyno2
T17 chain: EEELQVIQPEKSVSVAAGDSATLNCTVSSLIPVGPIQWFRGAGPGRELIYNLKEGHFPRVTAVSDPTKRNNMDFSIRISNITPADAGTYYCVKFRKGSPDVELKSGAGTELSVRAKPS

[25] = biological target: T18, C57BL/6 mouse SIRP-α D1 domain (mouse (C57BL/6 strain), UniProt P97797 32-148); assay: SPR, Langmuir fit
T18 sequence: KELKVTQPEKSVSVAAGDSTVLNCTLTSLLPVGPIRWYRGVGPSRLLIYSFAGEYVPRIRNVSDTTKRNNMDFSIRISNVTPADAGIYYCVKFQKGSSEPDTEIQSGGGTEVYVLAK

[26] = biological target: T8, cynomolgus SIRP-α; assay: SPR Koff +/-
How it was run: as §4

[27] = biological target: T19, mouse 129 SIRP-α (mouse (129 strain), UniProt P97797 32-150); assay: SPR Koff +/-
T19 construct: also called m129
T19 chain: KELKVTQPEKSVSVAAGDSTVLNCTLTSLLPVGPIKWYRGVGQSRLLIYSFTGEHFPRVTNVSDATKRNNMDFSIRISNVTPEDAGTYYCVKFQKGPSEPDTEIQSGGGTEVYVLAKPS
How it was run: as §4

[28] = biological target: T11, human SIRPγ isoform 1; assay: SPR Koff +/-
How it was run: as §4

T9 sequence (P78324 31-149 limits assumed): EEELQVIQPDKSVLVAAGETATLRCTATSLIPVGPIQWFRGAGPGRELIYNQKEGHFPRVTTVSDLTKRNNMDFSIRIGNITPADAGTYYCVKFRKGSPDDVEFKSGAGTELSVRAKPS
T12 sequence (chain, as listed by the source limits assumed): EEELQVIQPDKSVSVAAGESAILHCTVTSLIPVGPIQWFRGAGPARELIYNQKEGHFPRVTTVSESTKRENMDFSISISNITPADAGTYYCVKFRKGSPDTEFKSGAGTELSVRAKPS
T3 sequence (chain, as listed by the source limits assumed): as above
T5 sequence (Q5TFQ8 30-148 limits assumed): as the sequence (P78324 31-149 limits assumed) above, with V13I, L14S, T20S, R24H, A27V, G79S, D101H counted along it

B1: AB119a (antibody, human IgG1, V domains shown)
VH: DVQLLESGGGVVQPGGSLRLSCAASGFSFSNFAMTWVRQAPGEGLEWVSTIGSGDTYYADSVKGRFTISRDNSKNTLYLQMNSLRAEDTAVYYCAKDSTVSWSGDFFDYWGLGTLVTVSS
VL: EIVLTQSPATLSVSPGERATFSCRASQNVKNDLAWYQQRPGQAPRLLIYAARIRETGIPERFSGSGSGTEFTLTITSLQSEDFAVYYCQQYYDWPPFTFGGGTKVEIK
notes: Full-length human IgG1 with L234A, L235A, G237A and N297A; only variable domains tied to the clone
- Kd [1]: 183 pM
- Kd [2]: 112 pM
- Kd [3]: 68.2 pM
- Kd [4]: 342 pM
- Kd [5]: 198 pM
- Kd [6]: 145 pM
- Kd [7]: 79.9 pM
- Kd [8]: 376 pM
- Kd [9]: 886 pM

B2: Hum1/AB21_HC_Mutall (antibody, V domains shown)
VH: EVQLVESGGGVVQPGGSLRLSCAASGFTFSSNAMSWVRQAPGKGLEWVAGISAGGSDTYYPASVKGRFTISRDNSKNTLYLQMNSLRAEDTAVYYCARETWNHLFDYWGQGTLVTVSS
VL: SYELTQPPSVSVSPGQTARITCSGGSYSSYYYAWYQQKPGQAPVTLIYSDDKRPSNIPERFSGSSSGTTVTLTISGVQAEDEADYYCGGYDQSSYTNPFGGGTKLTVL
notes: also called Hum1/AB21mutall
- Kd [10]: 6.7 pM
- Kd [11]: 29.1 pM
- Kd [12]: 5.32 pM
- Kd [13]: 3700 pM
- Kd [14]: < 1 pM
- Kd [15]: 4.6 pM
- Kd [16]: 7910 pM
- Kd [17]: 9500 pM

B3: Hum9/AB21_HC_Mutall (antibody, V domains shown)
VH: EVQLVESGGGVVQPGGSLRLSCAASGFTFSSNAMSWVRQAPGKGLEWVAGISAGGSDTYYPASVKGRFTISRDNSKNTLYLQMNSLRAEDTAVYYCARETWNHLFDYWGQGTLVTVSS
VL: SYELTQPPSVSVSPGQTARITCSGGAYSSYYYAWYQQKPGQAPVLVIYSDDKRPSGIPERFSGSSSGTTVTLTISGVQAEDEADYYCGGYDQSSYTNPFGGGTKLTVL
notes: also called Hum9/AB21mutall
- Kd [10]: 56.9 pM
- Kd [11]: 222 pM
- Kd [12]: 11.9 pM
- Kd [13]: 24100 pM
- Kd [14]: 34.5 pM
- Kd [15]: 119 pM
- Kd [16]: 136000 pM

B4: antibody 194 (antibody, V domains shown)
VH: DVQLVESGGGVVRPGESLRLSCAASGFTFRNYGMSWVRQAPGEGLEWVSASSGSGSTYYADSVKGRFTISRDNSKNTLYLQMNSLRAEDTAIYYCAKVTWNNFFDYWGLGTLVTVSS
VL: EIVLAQSPDTLSVSPGERATLTCRASQDVAGKLAWYQQKPGQAPRLLIHATSSRADGIPARFSGSGSGTEFTLTITGLQSEDFAVYYCQQHYDWSPLTFGGGTKVEIK
notes: also called S194
- Kd [18]: 497 pM
- binding result [19]: no binding
- binding result [20]: no binding

B5: AB45 (as in Table J1) (antibody, V domains shown)
VH: AVTLDESGGGLQTPGGALSLVCKASGFTFSSYAMGWVRQAPGKGLEWVAGIDDDGSTANYGPAVKGRATISRDNGQSTVRLQLNNPRAEDSGTYFCAKASVTGWSAHISGRLDTWGHGTEVIVSS
VL: ALTQPASVSANPGETVKITCSGGGIYYYGWYQQKSPGSAPVTLIYENDKRPSDIPSRFSGSTSGSTNTFTITGVQAEDEAVYYCGGYDSNTTSGIFGAGTTLTVL
notes: also called antibody 45
- binding result [21]: no binding
- binding result [22]: no binding
- binding result [23]: no binding
- binding result [24]: no binding
- binding result [25]: no binding

B6: antibody 123 (antibody, V domains shown)
VH: VQLVESGGGLVQPGGSLRLSCTASGFTFRNYGMSWVRQAPGEGLEWVSASSGSGSTYYTDSVKGRFTISRDNSKNTLYLQMNSLRAEDTAIYYCAKVTWNNFFDYWGLGTLVTVSS
VL: EIVLTQSPGTLSVSPGERVTLTCRASQGIAGKIAWYQQKPGQAPRLLIYDASSRATGIPGRFSGSGSGTEFTLTITSLQSEDFAVYYCQQHYDWSPLTFGGGTKVEIK
notes: also called S123
- Kd [18]: 605 pM
- binding result [19]: no binding
- binding result [20]: no binding
- binding result [26]: binds
- binding result [27]: no binding
- binding result [28]: binds

B7: AB132a (antibody, human IgG1, V domains shown)
VH: DVQLVESGGGVVRPGESLRLSCAASGFSFRSYAMNWVRQAPGEGLEWVSRINSGGGGTDYADSVKGRFTISRDNSKNTLYLQMNSLRAEDTAVYYCAKQYDWNSFFDYWGLGALVTVSS
VL: ETVLTQSPATLSVSPGERATLSCRASQTVGSKLAWHQQKPGQAPRLLIYDASNRATGIPDRFSGSGSGTDFTLTISSPQTEDSAVYYCQQYYYWPPYRFGGGTKVEIK
notes: as for B1
- Kd [4]: 131 pM
- Kd [5]: 426 pM
- Kd [6]: 2410 pM
- Kd [7]: 1860 pM
- Kd [8]: 164 pM
- Kd [9]: 519 pM
